# Measurements taken from IntAct's records for PubMed 29039417.
# B1: BBSome complex member BBS1 (Homo sapiens), Q8NFJ9 (parent)
# chain: MAAASSSDSDACGAESNEANSKWLDAHYDPMANIHTFSACLALADLHGDGEYKLVVGDLGPGGQQPRLKVLKGPLVMTESPLPALPAAAATFLMEQHEPRTPALALASGPCVYVYKNLRPYFKFSLPQLPPNPLEQDLWNQAKEDRIDPLTLKEMLESIRETAEEPLSIQSLRFLQLELSEMEAFVNQHKSNSIKRQTVITTMTTLKKNLADEDAVSCLVLGTENKELLVLDPEAFTILAKMSLPSVPVFLEVSGQFDVEFRLAAACRNGNIYILRRDSKHPKYCIELSAQPVGLIRVHKVLVVGSTQDSLHGFTHKGKKLWTVQMPAAILTMNLLEQHSRGLQAVMAGLANGEVRIYRDKALLNVIHTPDAVTSLCFGRYGREDNTLIMTTRGGGLIIKILKRTAVFVEGGSEVGPPPAQAMKLNVPRKTRLYVDQTLREREAGTAMHRAFQTDLYLLRLRAARAYLQALESSLSPLSTTAREPLKLHAVVQGLGPTFKLTLHLQNTSTTRPVLGLLVCFLYNEALYSLPRAFFKVPLLVPGLNYPLETFVESLSNKGISDIIKVLVLREGQSAPLLSAHVNMPGSEGLAAA
# partner: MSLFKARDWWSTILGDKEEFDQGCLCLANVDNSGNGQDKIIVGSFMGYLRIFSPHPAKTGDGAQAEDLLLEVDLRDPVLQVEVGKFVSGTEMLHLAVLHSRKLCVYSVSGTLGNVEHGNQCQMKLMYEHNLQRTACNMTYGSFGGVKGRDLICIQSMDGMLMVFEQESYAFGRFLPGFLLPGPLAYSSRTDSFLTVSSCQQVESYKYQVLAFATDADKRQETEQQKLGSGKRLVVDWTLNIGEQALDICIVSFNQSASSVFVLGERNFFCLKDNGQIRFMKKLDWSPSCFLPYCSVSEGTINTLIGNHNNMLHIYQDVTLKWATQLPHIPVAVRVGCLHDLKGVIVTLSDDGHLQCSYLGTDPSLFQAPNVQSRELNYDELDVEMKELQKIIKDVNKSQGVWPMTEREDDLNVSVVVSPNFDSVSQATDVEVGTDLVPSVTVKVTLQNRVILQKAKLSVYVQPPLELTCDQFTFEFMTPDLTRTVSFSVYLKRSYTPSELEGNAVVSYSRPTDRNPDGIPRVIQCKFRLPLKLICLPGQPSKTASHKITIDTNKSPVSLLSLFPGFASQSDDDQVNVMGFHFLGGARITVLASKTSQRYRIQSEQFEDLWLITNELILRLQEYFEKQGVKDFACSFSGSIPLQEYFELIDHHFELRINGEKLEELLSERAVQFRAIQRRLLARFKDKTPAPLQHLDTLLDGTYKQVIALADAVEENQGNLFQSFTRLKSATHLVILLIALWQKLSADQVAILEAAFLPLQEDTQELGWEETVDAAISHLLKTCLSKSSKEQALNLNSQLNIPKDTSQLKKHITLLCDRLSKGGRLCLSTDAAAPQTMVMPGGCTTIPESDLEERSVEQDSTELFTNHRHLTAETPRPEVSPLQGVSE
# Variants of: B1
# Settings: with pthb1_human BBS9, Q3SYG4
row,Variant,effect of a mutation on the interaction
1,MAAASSSDSDACGAESNEANSKWLDAHYDPMANIHTFSACLALADLHGDGEYKLVVGDLGPGGQQPRLKVLKGPLVMTESPLPALPAAAATFLMEQHEPRTPALALASGPCVYVYKNLRPYFKFSLPQLPPNPLEQDLWNQAKEDRIDPLTLKEMLESIRETAEEPLSIQSLRFLQLELSEMEAFVNQHKSNSIKRQTVITTMTTLKKNLADEDAVSCLVLGTENKELLVLDPEAFTILAKMSLPSVPVFLEVSGQFDVEFRLAAACRNGNIYILRRDSKHPKYCIELSAQPVGLIRVHKVLVVGSTQDSLHGFTHKGKKLWTVQMPAAILTMNLLEQHSRGLQAVMAGLANGEVRIYRDKALLNVIHTPDAVTSLCFGRYGREDNTLIMTTRGGGLIIKILKRTAVFVEGGSEVGPPPAQAMKLNVPRKTRLYVDQTLREREAGTAMHRAFQTDLYLLRLRAARAYLQALESSLSPLSTTAREPLKLHAVVQGLGPTFKLTLHLQNTSTTRPVLGLLVCFLYNEALYSLPRAFFKVPLLVPGLNYPLETFVESLSNKGISDIIKVLALREGQSAPLLSAHVNMPGSEGLAAA [V568A],disrupting interaction strength
2,MAAASSSDSDACGAESNEANSKWLDAHYDPMANIHTFSACLALADLHGDGEYKLVVGDLGPGGQQPRLKVLKGPLVMTESPLPALPAAAATFLMEQHEPRTPALALASGPCVYVYKNLRPYFKFSLPQLPPNPLEQDLWNQAKEDRIDPLTLKEMLESIRETAEEPLSIQSLRFLQLELSEMEAFVNQHKSNSIKRQTVITTMTTLKKNLADEDAVSCLVLGTENKELLVLDPEAFTILAKMSLPSVPVFLEVSGQFDVEFRLAAACRNGNIYILRRDSKHPKYCIELSAQPVGLIRVHKVLVVGSTQDSLHGFTHKGKKLWTVQMPAAILTMNLLEQHSRGLQAVMAGLANGEVRIYRDKALLNVIHTPDAVTSLCFGRYGREDNTLIMTTRGGGLIIKILKRTAVFVEGGSEVGPPPAQAMKLNVPRKTRLYVDQTLREREAGTAMHRAFQTDLYLLRLRAARAYLQALESSLSPLSTTAREPLKLHAVVQGLGPTFKLTLHLQNTSTTRPVLGLLVCFLYNEALYSLPRAFFKVPLLVPGLNYPLETFVESLSNKGISDIIKKLVLREGQSAPLLSAHVNMPGSEGLAAA [V566K],disrupting interaction strength
3,MAAASSSDSDACGAESNEANSKWLDAHYDPMANIHTFSACLALADLHGDGEYKLVVGDLGPGGQQPRLKVLKGPLVMTESPLPALPAAAATFLMEQHEPRTPALALASGPCVYVYKNLRPYFKFSLPQLPPNPLEQDLWNQAKEDRIDPLTLKEMLESIRETAEEPLSIQSLRFLQLELSEMEAFVNQHKSNSIKRQTVITTMTTLKKNLADEDAVSCLVLGTENKELLVLDPEAFTILAKMSLPSVPVFLEVSGQFDVEFRLAAACRNGNIYILRRDSKHPKYCIELSAQPVGLIRVHKVLVVGSTQDSLHGFTHKGKKLWTVQMPAAILTMNLLEQHSRGLQAVMAGLANGEVRIYRDKALLNVIHTPDAVTSLCFGRYGREDNTLIMTTRGGGLIIKILKRTAVFVEGGSEVGPPPAQAMKLNVPRKTRLYVDQTLREREAGTAMHRAFQTDLYLLRLRAARAYLQALESSLSPLSTTAREPLKLHAVVQGLGPTFKLTLHLQNTSTTRPVLGLLVCFLYNEALYSLPRAFFKVPLLVPGLNYPLETFVESLSNKGISDIIKELVLREGQSAPLLSAHVNMPGSEGLAAA [V566E],disrupting interaction strength

# More lines, now with the values ahead:
row,effect of a mutation on the interaction,Variant
1,with no effect,MAAASSSDSDACGAESNEANSKWLDAHYDPMANIHTFSACLALADLHGDGEYKLVVGDLGPGGQQPRLKVLKGPLVMTESPLPALPAAAATFLMEQHEPRTPALALASGPCVYVYKNLRPYFKFSLPQLPPNPLEQDLWNQAKEDRIDPLTLKEMLESIRETAEEPLSIQSLRFLQLELSEMEAFVNQHKSNSIKRQTVITTMTTLKKNLADEDAVSCLVLGTENKELLVLDPEAFTILAKMSLPSVPVFLEVSGQFDVEFRLAAACRNGNIYILRRDSKHPKYCIELSAQPVGLIRVHKVLVVGSTQDSLHGFTHKGKKLWTVQMPAAILTMNLLEQHSRGLQAVMAGLANGEVRIYRDKALLNVIHTPDAVTSLCFGRYGREDNTLIMTTRGGGLIIKILKRTAVFVEGGSEVGPPPAQAMKLNVPRKTRLYVDQTLREREAGTAMHRAFQTDLYLLRLRAARAYLQALESSLSPLSTTAREPLKLHAVVQGLGPTFKLTLHLQNTSTTRPVLGLLVCFLYNEALYSLPRAFFKVPLLVPGLNYPLETFVESLSNKGISDIIKVLVAREGQSAPLLSAHVNMPGSEGLAAA [L569A]
2,disrupting interaction strength,MAAASSSDSDACGAESNEANSKWLDAHYDPMANIHTFSACLALADLHGDGEYKLVVGDLGPGGQQPRLKVLKGPLVMTESPLPALPAAAATFLMEQHEPRTPALALASGPCVYVYKNLRPYFKFSLPQLPPNPLEQDLWNQAKEDRIDPLTLKEMLESIRETAEEPLSIQSLRFLQLELSEMEAFVNQHKSNSIKRQTVITTMTTLKKNLADEDAVSCLVLGTENKELLVLDPEAFTILAKMSLPSVPVFLEVSGQFDVEFRLAAACRNGNIYILRRDSKHPKYCIELSAQPVGLIRVHKVLVVGSTQDSLHGFTHKGKKLWTVQMPAAILTMNLLEQHSRGLQAVMAGLANGEVRIYRDKALLNVIHTPDAVTSLCFGRYGREDNTLIMTTRGGGLIIKILKRTAVFVEGGSEVGPPPAQAMKLNVPRKTRLYVDQTLREREAGTAMHRAFQTDLYLLRLRAARAYLQALESSLSPLSTTAREPLKLHAVVQGLGPTFKLTLHLQNTSTTRPVLGLLVCFLYNEALYSLPRAFFKVPLLVPGLNYPLETFVESLSNKGISDIIKVLVEREGQSAPLLSAHVNMPGSEGLAAA [L569E]
